From PMC5818740 (Protein Science : A Publication of the Protein Society, 2018) come the findings set out here.

For series [1], the target named is T1, lysine-methylated dimeric PICK1 PDZ-QSAV (human | , UniProt Q9NRD5 1-105, surface lysines methylated with 19C-labeled formaldehyde (so in the source)).
T1 construct: human PICK1, residues 1 to 105, holding the PDZ domain; The methods say 'dimeric PICK1 PDZ-QSAV'; also called methylated PICK1 PDZ material; source: E. coli BL21 (DE3), purified; surface lysines methylated with labelled formaldehyde and sodium cyanoborohydride
T1 chain: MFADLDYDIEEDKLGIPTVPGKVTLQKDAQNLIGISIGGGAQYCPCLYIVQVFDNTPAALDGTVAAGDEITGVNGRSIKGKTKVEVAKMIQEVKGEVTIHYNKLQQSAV
As to the kind of experiment: NMR titration; 1H-13C HSQC of lysine-methylated dimeric PICK1 PDZ-QSAV with GluA2 peptide added; 40 mM sodium phosphate pH 6.8, 150 mM NaCl, 0.2 mM EDTA, DMSO, D2O; 298 K. Conditions: both partners purified.

Series [2] concerns the molecule itself. As to the kind of experiment: crystal structure; disulfide-bridged, bCPA-treated PICK1 PDZ-QS dimer with BIO124, seeded with PICK1 PDZ-QSAV crystals; 0.1 M BisTRIS pH 5.5, 25% PEG3350, 4°C; 1.75 Å.
Series [3] deals with the molecule itself. As to the kind of experiment: SEC; Superdex 75 in 25 mM TRIS-HCl pH 8.0, 250 mM NaCl, 5% glycerol, 2 mM DTT (reducing conditions).
Series [4] concerns the molecule itself. As to the kind of experiment: crystal structure; disulfide-locked PICK1 PDZ-QSAV dimer, crystallised with 4.5 molar equivalents of BIO124; 0.1 M BisTRIS pH 5.5, 25% PEG3350, 4°C; 2.44 Å.

B1: wild type GluA2 peptide (VYGIESVKI) (peptide)
peptide: VYGIESVKI
notes: also called Wt GluR2 peptide; source: synthetic peptide, bought: New England Peptide
In the case of B1, the binding result in series [1] was “binds”.

B2: bCPA-treated PICK1 PDZ-QS (disulfide-bridged dimer, with BIO124) (domain or fragment)
chain: MFADLDYDIEEDKLGIPTVPGKVTLQKDAQNLIGISIGGGAQYCPCLYIVQVFDNTPAALDGTVAAGDEITGVNGRSIKGKTKVEVAKMIQEVKGEVTIHYNKLQQS
modifications: disulfide-bridged dimer
notes: human PICK1, residues 1 to 105, holding the PDZ domain; what is left of the fused PKCalpha QSAV tail after removal of the 0 and -1 position residues (AV) by carboxypeptidase A; Removal of AV was >95% by mass spectrometry; the small molecule BIO124 sits in the peptide groove of both chains; also called PICK1 PDZ-QS BIO124 complex; PICK1-PDZ-BIO124; source: E. coli BL21 (DE3), purified, oxidised …
With B2, the binding result in series [2] is on record as “binds”.

B3: PICK1 PDZ-QSAV (unlocked, reduced dimer) (domain or fragment)
chain: MFADLDYDIEEDKLGIPTVPGKVTLQKDAQNLIGISIGGGAQYCPCLYIVQVFDNTPAALDGTVAAGDEITGVNGRSIKGKTKVEVAKMIQEVKGEVTIHYNKLQQSAV
notes: The His tag is TEV cleavable; no cleavage step is described; also called PICK1 PDZ-QSAV protein; source: E. coli BL21 (DE3), purified (nickel resin, Superdex 75)
In the case of B3, the “stoichiometry N” value in series [3] came to 2.

B4: disulfide-bridged (locked) PICK1 PDZ-QSAV dimer (domain or fragment)
chain: MFADLDYDIEEDKLGIPTVPGKVTLQKDAQNLIGISIGGGAQYCPCLYIVQVFDNTPAALDGTVAAGDEITGVNGRSIKGKTKVEVAKMIQEVKGEVTIHYNKLQQSAV
modifications: intermolecular disulfides C44(A)-C46(B) and C44(B)-C46(A)
notes: human PICK1, residues 1 to 105, holding the PDZ domain; Same construct as m1 after oxidation; crystallised in the presence of BIO124, which was not seen in the structure; also called dimeric PICK1 PDZ-QSAV; oxidized dimer; source: E. coli BL21 (DE3), purified (nickel resin, Superdex 75), oxidised with 2.5 mM H2O2, Superdex 75
Consider B4, for which, in series [4], the binding result is reported as “binds”.

By stoichiometry N is commonly meant the number of molecules, sites or subunits per partner or assembly.
